Broadly, the Kd is the free concentration of one partner at which half of the binding sites on the other are occupied at equilibrium, for simple one-to-one binding. Low values mean a tighter complex, high ones a looser complex.

The first data set concerns the target T1, GDF11 (mature human) (Homo sapiens) (UniProt O95390).
T1 sequence: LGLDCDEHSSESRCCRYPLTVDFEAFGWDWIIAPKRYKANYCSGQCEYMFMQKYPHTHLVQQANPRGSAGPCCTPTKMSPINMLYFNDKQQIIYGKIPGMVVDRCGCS
The experiment in a line: filter. The following applies: NapdU at all P (n) positions; 0.1 uM Z-block.
The sequence “CCCTGCGCCTTCGGACTTGCTTTAAGTTTAGCCGCTTGCTCACGTCACAA [12060-130_3]” displayed a Kd of 0.61 nM.
On the same count and under the same terms, the value for “CTGTGGACTGAGTTGGATGGGACTTGATTTAAGTTTAGCCCGCAACACAA [16139-3_3]” was 1.58 nM; that for “CCCTGCGCCTTCGGACTTGCTTTACGTTTAGCCGCTTGCTCACATCACAA [12060-238_3]” was 3.4 nM.
On the same count and under the same terms, the same measure for “CCCTGCGCCTTCGGACTTGCTTTAAGTTTAGCCGCTTGCTCACAACACAA [12060-300_3]”: 0.99 nM.
On the same count and under the same terms, the value for “CCCTGCGCCTTCGGACTTGGTTTAAGTTTAGCCGCTTGCTCACATCACAA [12060-28_39]” was 1.2 nM; that for “CTGTGCGTACTGACTTGATTTACGTTTTAGCGATGCATGCTTGAGCCACAA [16139-122_3]” was 2.23 nM.
As for “CTGTGAGTGTACCTCGCGCTTGATTTACGTTTAGGCGAGGCAGGCCACAA [16139-30_3]”, the Kd was 0.92 nM. Compared with the last sequence, the Kd is about 2.4-fold lower.
Same read-out and setting: the value for “CCCTGCGCCTTCGGACTTGCTTTAAGTTTAGCCGCTTGTTCACATCACAA [12060-4_3]” was 0.9 nM; that for “CTGTGACCTTCACCCGTGACTTGGTTTACGTTTAGCGGGTAGGTCACAA [16139-178_3]” was 1.08 nM; that for “CCCTGCGCCTTCGGACTTGATTTAAGTTTAGCCGCTTGCTCACATCACAA [12060-28_38]” was 1.1 nM.
Same read-out and setting: the value for “CTGTGACTAATGTGACCGGAGACTTGCTTTACGTTTAGCGACCTGCACAA [16139-12_3]” was 1.7 nM.
“CTGTGAACTTGATTTAAGTTTAGGCACATACACCACTCCGGACGA [16139-198_3]” came in with a Kd of 0.62 nM. This Kd is about 2.7-fold lower than that of the sequence before.
Same read-out and setting: the value for “CCCTGCGCCTTCGGACTTGCTTTAGGTTTAGCCGCTTGCTCACATCACAA [12060-28_40]” was 1.4 nM; that for “CTGTGCTAAGACTGCGGACTTGATTTAGGTTTAGCCGCAAGAAGTCACAA [16139-37_3]” was 1.21 nM; that for “CCCTGGTTGACAAGGTACTGGACTTGATTTACGTTTAGCCTCAAGCACAA [12058-386_3]” was 6.7 nM.
Same read-out and setting: the same measure for “CCCTGCGCCTTCGGACTTGCTTTAAGTTTAGCCGCTCGCTCACATCACAA [12060-204_3]”: 0.94 nM.
Same read-out and setting: the same measure for “CCCTGCGCCTTCGGACTTGCTTTAAGTTTAGCCGCTTGCTTACATCACAA [12060-116_3]”: 1.14 nM; for “CCCTGTGCCTTCGGACTTGCTTTAAGTTTAGCCGCTTGCTCACATCACAA [12060-32_3]”: 1.45 nM; for “CTGTGGTTAACGACGACTTGATTTACGTTTAGCGGCACCTTACACCACAA [16139-19_3]”: 1.7 nM.

Still in this data set, the particulars now being: NapdU at all P (n) positions; 0.1 uM Z-block; Table 5 gives 4.17 nM, p194 1.74 nM with 1 uM Z-block.
Regarding “CCCTGCGCCTTCGGACTTGCTTTAAGTTTAGCCGCTTGCTCACATCACAA [12060-28_3]”, the Kd was 1.7 nM.

Staying with this data set, now noted: NapdU at all P (n) positions; 0.1 uM Z-block; Table 5 gives 6.52 nM.
For the sequence “CCCTGTGAGACTTGATTTACGTTTAGCTGCTAACATGGGGAACCACACAA [12060-16_3]”, the Kd was 6.5 nM.

Values taken from US20190024087.
